According to publication PMC9305627:

Key:
Experiment in all cases: ELISA
UbV.ANKRD13D.4 W72A = UbV.ANKRD13D.4 W72A (UniProt P0CG47)
UbV.ANKRD13D.4 T12A = UbV.ANKRD13D.4 T12A (UniProt P0CG47)
UbV.ANKRD13D.4 Q49A = UbV.ANKRD13D.4 Q49A (UniProt P0CG47)
UbV.ANKRD13D.4 S65A = UbV.ANKRD13D.4 S65A (UniProt P0CG47)
UbV.ANKRD13D.4 L70A = UbV.ANKRD13D.4 L70A (UniProt P0CG47)

Measured: fold effect on affinity against UbV.ANKRD13D.4

B1: UIM.ANKRD13D.4 peptide (peptide)
peptide: RGQQEEEDLQRILQLSLTEH
< 3 fold: UbV.ANKRD13D.4 W72A | UbV.ANKRD13D.4 T12A | UbV.ANKRD13D.4 Q49A | UbV.ANKRD13D.4 S65A | UbV.ANKRD13D.4 L70A
